From PMC9272825 (The Journal of Physical Chemistry. B, 2022)
Values joined by “and” are separate entries in the source; they are usually repeats but may differ in a detail not shown here. Equal entries are not always repeated.

Target: N-terminal domain of enzyme I (EIN) (UniProt P08839 1-249)
Assay: NMR titration

B1: Histidine phosphocarrier protein (HPr) (natural protein)
chain: not shown
In the case of B1, the Kd is reported as 2.82 µM and 2.45 µM and 3.03 µM and 3.02 µM.
